B1: ATE1 (parent)
chain: DYFPSEDFYRCGYCKNESGSRSNG
B2: FADS1 (parent)
chain: LNFQIEHHLFPTMPRHNYHKVAPL
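Also: lentivirally expressed fusions sorted by FACS into six bins by GFP to DsRed ratio, PSI derived from sequencing read proportions per bin multiplied by bin number.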

Variants of: B1
Assay: protein stability index of a GFP-peptide fusion (GPS, HEK-293T) (PSI 1-6); higher = more stable
Conditions: c terminus: a fixed tail appended
DYFPSADFYRCGYCKNESGSRSNG [E6A] gave a protein stability index of 1.81.
Variant DYFPSPDFYRCGYCKNESGSRSNG [E6P] has a protein stability index of 2.24.
Work on KYFPSEDFYRCGYCKNESGSRSNG [D1K] yielded a protein stability index of 2.28.
With AYFPSEDFYRCGYCKNESGSRSNG [D1A] the protein stability index was 2.3.
Work on SYFPSEDFYRCGYCKNESGSRSNG [D1S] yielded a protein stability index of 2.15.
In the case of QYFPSEDFYRCGYCKNESGSRSNG [D1Q], the protein stability index is reported as 1.89.
Work on EYFPSEDFYRCGYCKNESGSRSNG [D1E] yielded a protein stability index of 1.65.
Work on VYFPSEDFYRCGYCKNESGSRSNG [D1V] yielded a protein stability index of 2.58.
Work on RYFPSEDFYRCGYCKNESGSRSNG [D1R] yielded a protein stability index of 1.74.
With YYFPSEDFYRCGYCKNESGSRSNG [D1Y] the protein stability index was 3.1.
For PYFPSEDFYRCGYCKNESGSRSNG [D1P], the protein stability index was 2.35.
IYFPSEDFYRCGYCKNESGSRSNG [D1I] gave a protein stability index of 1.23.
For LYFPSEDFYRCGYCKNESGSRSNG [D1L], the protein stability index was 2.38.
With FYFPSEDFYRCGYCKNESGSRSNG [D1F] the protein stability index was 1.84.
HYFPSEDFYRCGYCKNESGSRSNG [D1H] showed a protein stability index of 2.58.
With MYFPSEDFYRCGYCKNESGSRSNG [D1M] the protein stability index was 2.06.
Variant TYFPSEDFYRCGYCKNESGSRSNG [D1T] has a protein stability index of 2.24.
Work on WYFPSEDFYRCGYCKNESGSRSNG [D1W] yielded a protein stability index of 3.35.
With NYFPSEDFYRCGYCKNESGSRSNG [D1N] the protein stability index was 2.
Variant CYFPSEDFYRCGYCKNESGSRSNG [D1C] has a protein stability index of 2.26.

Variants of: B2
Assay: as above
Conditions: c terminus: a fixed tail appended
In the case of LNFQIEHHLFPTMPRHNYHKVAPY [L24Y], the protein stability index is reported as 3.02.
LNFQIEHHLFPTMPRPNYHKVAPL [H16P] gave a protein stability index of 2.19.
With LNFQIEHHLFPTEPRHNYHKVAPL [M13E] the protein stability index was 1.35.
Work on LNFQIEHHLFPTIPRHNYHKVAPL [M13I] yielded a protein stability index of 2.35.
LNFQIEHQLFPTMPRHNYHKVAPL [H8Q] gave a protein stability index of 2.35.
LNFQIEHILFPTMPRHNYHKVAPL [H8I] showed a protein stability index of 3.23.
LNFQIEHNLFPTMPRHNYHKVAPL [H8N] showed a protein stability index of 2.06.
Work on LNFQIEHELFPTMPRHNYHKVAPL [H8E] yielded a protein stability index of 3.1.
In the case of LNFQIEHHLFPTMPRHNYYKVAPL [H19Y], the protein stability index is reported as 2.58.
LNFQIEHHLFPTMPRHNYFKVAPL [H19F] gave a protein stability index of 1.81.
LNFQIEHHLFPTMPRHNYGKVAPL [H19G] showed a protein stability index of 3.11.
Variant LNFQIEHHLFPTMPRHNYAKVAPL [H19A] has a protein stability index of 2.85.
LVFQIEHHLFPTMPRHNYHKVAPL [N2V] gave a protein stability index of 2.5.
Variant LSFQIEHHLFPTMPRHNYHKVAPL [N2S] has a protein stability index of 1.88.
For LIFQIEHHLFPTMPRHNYHKVAPL [N2I], the protein stability index was 3.16.
With LRFQIEHHLFPTMPRHNYHKVAPL [N2R] the protein stability index was 2.09.
Variant LNFQICHHLFPTMPRHNYHKVAPL [E6C] has a protein stability index of 2.65.
Work on LNFQIWHHLFPTMPRHNYHKVAPL [E6W] yielded a protein stability index of 2.57.
Variant LNFQIYHHLFPTMPRHNYHKVAPL [E6Y] has a protein stability index of 2.06.
Work on LNFQIEHHLFPTMYRHNYHKVAPL [P14Y] yielded a protein stability index of 3.17.
Variant LNFQIEHHLFTTMPRHNYHKVAPL [P11T] has a protein stability index of 2.24.
Variant LNFQIEHHLFSTMPRHNYHKVAPL [P11S] has a protein stability index of 2.
Variant LNFQIEHHLFETMPRHNYHKVAPL [P11E] has a protein stability index of 2.56.
In the case of LNFQIEHHLFDTMPRHNYHKVAPL [P11D], the protein stability index is reported as 3.83.
LNFQIEHHLFHTMPRHNYHKVAPL [P11H] showed a protein stability index of 3.14.
LNFQIEHHLFKTMPRHNYHKVAPL [P11K] showed a protein stability index of 2.46.
LNMQIEHHLFPTMPRHNYHKVAPL [F3M] gave a protein stability index of 2.31.
Work on LNLQIEHHLFPTMPRHNYHKVAPL [F3L] yielded a protein stability index of 1.73.
With LNFQIEMHLFPTMPRHNYHKVAPL [H7M] the protein stability index was 2.96.
For LNFQIELHLFPTMPRHNYHKVAPL [H7L], the protein stability index was 3.47.
LNFQIENHLFPTMPRHNYHKVAPL [H7N] gave a protein stability index of 1.4.
Variant LNFQIEGHLFPTMPRHNYHKVAPL [H7G] has a protein stability index of 1.55.
LNFQIECHLFPTMPRHNYHKVAPL [H7C] gave a protein stability index of 3.38.
Variant LNFQIEQHLFPTMPRHNYHKVAPL [H7Q] has a protein stability index of 2.45.
LNFQIEHHLFPTMPRHNYHKEAPL [V21E] showed a protein stability index of 2.32.
In the case of LNFQIEHHLFPTMPRHNYHKIAPL [V21I], the protein stability index is reported as 3.07.
With LNFQIEHHLFPTMPRHNYHKWAPL [V21W] the protein stability index was 2.14.
Variant LNFQIEHHLFPTMPAHNYHKVAPL [R15A] has a protein stability index of 3.26.
Work on LNFQIEHHLFPTMPDHNYHKVAPL [R15D] yielded a protein stability index of 1.98.
Work on LNFQIEHHLFPTMPNHNYHKVAPL [R15N] yielded a protein stability index of 2.43.
LNFQIEHHLFPTMPGHNYHKVAPL [R15G] showed a protein stability index of 3.15.
With LNFQIEHHLFPTMPCHNYHKVAPL [R15C] the protein stability index was 3.14.
With LNFQIEHHLFPDMPRHNYHKVAPL [T12D] the protein stability index was 1.98.
For LNFQIEHHLFPMMPRHNYHKVAPL [T12M], the protein stability index was 1.73.
For LNFQIEHHLFPIMPRHNYHKVAPL [T12I], the protein stability index was 2.5.
In the case of LNFQIEHHLFPWMPRHNYHKVAPL [T12W], the protein stability index is reported as 2.45.
LNFQIEHHLFPFMPRHNYHKVAPL [T12F] gave a protein stability index of 2.79.
In the case of LNFQIEHHLFPTMPRHMYHKVAPL [N17M], the protein stability index is reported as 1.58.
Work on LNFQIEHHLFPTMPRHGYHKVAPL [N17G] yielded a protein stability index of 1.27.
LNFQIEHHLFPTMPRHWYHKVAPL [N17W] showed a protein stability index of 2.84.
In the case of LNFQIEHHLFPTMPRHFYHKVAPL [N17F], the protein stability index is reported as 2.83.
LNFQIEHHLGPTMPRHNYHKVAPL [F10G] showed a protein stability index of 2.73.
LNFQIEHHLLPTMPRHNYHKVAPL [F10L] gave a protein stability index of 1.55.
For LNFQIEHHLRPTMPRHNYHKVAPL [F10R], the protein stability index was 1.87.
With LNFKIEHHLFPTMPRHNYHKVAPL [Q4K] the protein stability index was 1.92.
Variant LNFQIEHHLFPTMPRHNYHKVYPL [A22Y] has a protein stability index of 2.21.
Variant LNFQIEHHLFPTMPRHNYHKVEPL [A22E] has a protein stability index of 1.85.
LNFQIEHHLFPTMPRHNYHQVAPL [K20Q] gave a protein stability index of 3.36.
With LNFQIEHHLFPTMPRHNYHTVAPL [K20T] the protein stability index was 1.79.
In the case of LNFQIEHHLFPTMPRHNYHMVAPL [K20M], the protein stability index is reported as 2.3.
Work on LNFQIEHHLFPTMPRHNYHHVAPL [K20H] yielded a protein stability index of 1.46.
In the case of LNFQIEHHLFPTMPRHNYHDVAPL [K20D], the protein stability index is reported as 2.29.
With LNFQIEHHAFPTMPRHNYHKVAPL [L9A] the protein stability index was 1.39.
Variant LNFQIEHHHFPTMPRHNYHKVAPL [L9H] has a protein stability index of 1.8.
Variant LNFQIEHHVFPTMPRHNYHKVAPL [L9V] has a protein stability index of 2.37.
Variant LNFQIEHHLFPTMPRHNYHKVAIL [P23I] has a protein stability index of 2.42.
LNFQIEHHLFPTMPRHNYHKVARL [P23R] gave a protein stability index of 1.69.
Variant LNFQIEHHLFPTMPRHNYHKVAML [P23M] has a protein stability index of 2.06.
Work on HNFQIEHHLFPTMPRHNYHKVAPL [L1H] yielded a protein stability index of 2.1.
Work on LNFQIEHHLFPTMPRHNRHKVAPL [Y18R] yielded a protein stability index of 1.64.
In the case of LNFQIEHHLFPTMPRHNSHKVAPL [Y18S], the protein stability index is reported as 1.69.
LNFQVEHHLFPTMPRHNYHKVAPL [I5V] showed a protein stability index of 2.73.
LNFQSEHHLFPTMPRHNYHKVAPL [I5S] showed a protein stability index of 2.18.
With LNFQNEHHLFPTMPRHNYHKVAPL [I5N] the protein stability index was 2.52.

From the supplement of paper PMC10567573
